Blank lines part the entries; values can stand above or below the binder they belong to.
Tests used:
[1] = target: Human IL-17RA:Fc (human), Q96F46; assay: SPR (BIAcore 3000), receptor:Fc captured by anti-human Fc, cytokine as analyte, koff/kon, 1:1 Langmuir fit; settings: remark: other sources report otherwise
Human IL-17RC:Fc (human) = Human IL-17RC:Fc (human) (UniProt Q8NAC3); assay: as above

Kd [1]: 100 nM
B1: Human IL-17F, Q96PD4 31-163 (ligand, UniProt Q96PD4 31-163, looked up)
chain: RKIPKVGHTFFQKPESCPPVPGGSMKLDIGIINENQRVSMSRNIESRSTSPWNYTVTWDPNRYPSEVVQAQCRNLGCINAQGKEDISMNSVPIQQETLVVRRKHQGCSVSFQLEKVLVTVGCTCVTPVIHHVQ

Kd (Human IL-17RC:Fc (human)): 0.1 nM
B2: Human IL-17F (ligand, UniProt Q96PD4 31-163, looked up)
chain: B1 chain

From patent US20110008356A1
